Measured values from the nanobody polyreactivity screen of Harvey et al. (2022).

Assay: yeast display, Sf9 membrane polyspecificity reagent, FACS + sequencing; frameworks hold sequencing errors
In short: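 A synthetic nanobody library was expressed on Saccharomyces cerevisiae BJ5465 by galactose induction for 36–48 hours. The library was stained for 1 hour at 4 °C with 10% biotinylated, detergent-solubilized Sf9 membrane reagent and enriched with streptavidin microbeads before FACS. Low and high (top ~1%) gates were set on anti-HA fluorescence for expression and streptavidin fluorescence for reagent binding, and each polyreactivity label reflects the gate of origin.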

Sequence: QVQLVESGGGLVQAGGSLRLSCAASGRTIKYYAMGWYRQAPGKERELVAVITYGGSTDYADSVKGRFTISRDNAKNTVYLQLNSLKPEDTAVYYCAAGFGRHYWGYDSWGQGTQVTVSS
- polyreactivity (PSR sort gate): low polyreactivity

Sequence: QVQLVESGGGLVQAGGSLRLSCAASGSIFYYYAAMGWYRQAPGKERELVAAIDSSDGTTYYADSVKGRFTISRDNAKNTVYLQMNSLKPEDTAVYYCAAETVQEFEYWGQGTQVTVSS
- polyreactivity (PSR sort gate): high polyreactivity

Sequence: QVQLVESGGGLVQAGGSLRLSCAASGSTFGPYAMGWYRQAPGKERELVAVITTSGSTNYADSVKGRFTISRDNAKNTVYLQMNSLKPEDTAVSYCAARYRYYGTNRYYYWGQGTQVTVSS
- polyreactivity (PSR sort gate): high polyreactivity

Sequence: QVQLVESGGGLVQAGGSLRLSCAASGSTFVPYAMGWYRPAPGKERELVAGITFSGGSTYYADSVKGRFTISRDNAKNTVYLQMNSLKPEDTAVYYCAAGGWRGHYYWGQGTQVTVSS
- polyreactivity (PSR sort gate): high polyreactivity

Sequence: QVQLVESGGGLLQAGGSLRLSSAASGFIFNWYAMGGYRQAPGKERELVAAITSGGSTNYADSVKGRFTISRDNAKNTVYLQMNSLKPEDTAVYYCAARHWRRYGYCGQGTQVTVSS
- polyreactivity (PSR sort gate): high polyreactivity

Sequence: QVQLVESGGGLVQAGGSLRLSCAASAFTFRRYVKGWYRQAPGKERELVAAISSGGRTNYADSVKGRFTISRYNAKNTVYLQMNSLKPEDTAVYYCAADRYSSYYVLYDYWGQGTQVSVSS
- polyreactivity (PSR sort gate): high polyreactivity

Sequence: QVQLVESGGGLVQAGGSLRLSCAASGFTFRYYAMGCYRQAPGKVRELVAAITGSGTRTYYADSVKGRFTISRDNAKNTVYLQMNSLKPEDTALYYCNAPRQPRWFDYWGQGTQVTVSS
- polyreactivity (PSR sort gate): high polyreactivity

Sequence: QVQLVESGVGLVQAGGSLRLSCAASGFIFRYYTMGWYRPAPGKERELVAVITSGGTTYYADSVKGRFTISRDNAKNTVYLHMNSLIPEDTAVYYCAADYRPRLYGVGVDYWGQGSQVTVSS
- polyreactivity (PSR sort gate): low polyreactivity

Sequence: QVQLVESGGGLVQAGGSLRLSCAASGRTFWYNAMGWYRQAPGKEREFVAAIRWTTGSTYYADSVKGRFTISRDNAKNTVYLQMNSLKPEDTAVYYCAASLYPVRRDYWGQGTQVTVSS
- polyreactivity (PSR sort gate): high polyreactivity

Sequence: QVQLVESGGGLVQAGGSLRLSCAASGSIFSYYSMGWYRQAPGKERELVAAITSGDGTNYADSVKGRFTISRDYAKNTVYLQMNSLKPEDTAVYYCAADAVDSYWREDYWGQGTQVTVSS
- polyreactivity (PSR sort gate): low polyreactivity

Sequence: QDQLVESGGGLVQEGGSLRLSCAASGSIFARNAMGWYRQAPGKERELVAAISRSGGSTYYADSVKGRFTISRDNAKNTVYVQMNSMKPEDTAVYFCNAVQRYSQGDYWGHGTQVTVSS
- polyreactivity (PSR sort gate): high polyreactivity

Sequence: QVQLVESGGGLVQAGGSLRLSCAASGRIFKKYAMGWYRQAPGKERELVATISSGGSTYYADSVKGRFTISRDNAKNTVYLQMNSLKPEDTAVYYCARREYVRRDYFVTTYDYWGQGTQVTVSS
- polyreactivity (PSR sort gate): low polyreactivity

Sequence: QVQLVESGGGLVQAGGSLRLSCAASGFTFRFYAMGWYRQAPGKERELVATISSRGGRTYYADSVKGRFTISRDNAKNTVYLQMNSLKPEDTAVYYCAADQKSQYQGNYWGQGTQVTVSS
- polyreactivity (PSR sort gate): high polyreactivity

Sequence: QVQLVESGGCLVQAGGSLRLTCAASGRIFDLYTMGWYRQATGIERELVAGIYGNGDGTYADSVKGLFTISRDNAKNPVYLQMNSLKPEDTAVYYCAADGIYIYHPYTRFDYCGQGTQVTVSS
- polyreactivity (PSR sort gate): low polyreactivity

Sequence: QVQLEESGGGLVQAGGSLRLSCAASGSILRVNVMVWYRQAPGKERELVAAITSGGRTYYADSVKGRFTISRDNAKNTVYLQMNSLIQEDTAVYYCAAKFFRNTYSYGMDYWGQGTQVTVSS
- polyreactivity (PSR sort gate): high polyreactivity

Sequence: QVQLVESGAGLVQAGGSLRLSCAASVRIFDSYAMGWSRQAPGKERELVAAITGSGGRTYYAESVKGRFTISRDNAKNTVYLQMNSQKPEYTAVYYCARALGQRRYDYWGQGTHVTVSS
- polyreactivity (PSR sort gate): high polyreactivity

Sequence: QVQLVESGGGLVQAGGSLRLSCAASGYIFLRNAMGWYRQAPGKERELVAAIRRTGGSTYADSVKGRFTISRDNAKNTVYLQMNSLKPEDTAVYYCNAGYLLYYDYHLFYWVQGTQVTVSS
- polyreactivity (PSR sort gate): low polyreactivity

Sequence: QVQLVESGGGLVQAGGSLRLSCAASGRIFKWNAMGWYRQAPGKERELVAAIRWSGTSTYADSVKGRFTISRDNAKNTVYLQMNSLKPEDTAVYYCAASKRYTVGVRAFGKHDYWGQGTQVTVSS
- polyreactivity (PSR sort gate): low polyreactivity

Sequence: QVQLVESGGGLVQAGGSLRLSCAASGRTFHWYAMGGYRQAPGKERELVAAIRYSAGSTYYADSVKGRFTISRDNAKNTVYLQMNSLKPEDTAVYYCAAEPYPYGPYYLLWLRYDYWGQGTQVTVSS
- polyreactivity (PSR sort gate): low polyreactivity

Sequence: QVQLVESGGGLVQAGGSLRLSCAASGFIFYYYAMGWYRQAPGKERELVAAISRGGSTYYADSVKGRFTISRDNAKNTVYLQMNSLKPEDTAVYYCAAEAFPVYSYYYWGQGTQVTVSS
- polyreactivity (PSR sort gate): high polyreactivity

Sequence: QVQLVESGGGLVQAGGSLRLSCAASGSIFPEYAMGWYRQAPGKERELVASISSGGSSTYYADSVKGRFTISRDNAKNTVYLQMNSLKPEDTAVYYCARRRSYKRRFDYWGQGTQVTVSS
- polyreactivity (PSR sort gate): low polyreactivity

Sequence: QVQLVESGGGLVQAGGSLRLSCAASGSNFSYYDMGWYRQAPGKERELVAAISWNGGTTYYADSVKGRFTISRDNAKNTVYLQMNSLKPEDTAVYYCAATWDFYWAPYDSWGQGTQVTVSS
- polyreactivity (PSR sort gate): low polyreactivity

Sequence: QVQLVESGGGLVQAGGSLRLSCAASGRTFSGYAMGWYRQAPGKERELVAAISWRGGRTYYADSVKGRFTISRDNAKNTVYLQMNSLKPEDTAVYYCATTVGDAGRRYYYWGQGTQVTVSS
- polyreactivity (PSR sort gate): high polyreactivity

Sequence: QVQLVESGGGLVQAGGSLRLSCAASGSTFGWNAMGRYRQAPGKERELVAAISSSGGSTNYADSVKGRFTISRDNAKNTVYLQMTSLKPEDTAVYYCAKARRPGYGYGYWGQGTQLTVSS
- polyreactivity (PSR sort gate): low polyreactivity

Sequence: QVQLVESGGGLVQAGGSLRLSCAASGSIFYRYSMGWYRQAPGKEREFVAAITWSGGSTYYADSVKGRFTISRDNAKNTVYLQMNSLKPEDTAVYYCAKDSGSYRVGIYEPFPYGYWGQGTQVTVSS
- polyreactivity (PSR sort gate): low polyreactivity

Sequence: QVQLVESGGGLVQAGCSLRLICAASALTFYHKAMGWYRPAPVKERELVAPISSSGDSTYSADSVKGRFTISHDNGKNTVYLQMNSLKPEYTAVYYCAADLGYYNARWYEYWGQGTQVTVSS
- polyreactivity (PSR sort gate): high polyreactivity

Sequence: QVQLVESGGGLVQAGGSLRLSCAASGRIFDINAMGWYIQAPGKERELVAAINYNGSSTYYADSVKGRFTISRDNAKNTVYLQKNSLKPEDTAVYYCATVQVDVYTYDYWGQGTKVTVSS
- polyreactivity (PSR sort gate): high polyreactivity

Sequence: HAQLQESGGGLVQAGGSLRRSCAASGSIFRFSGMGWYRLAPGKERELVASIGFGSITYYADRVNGRFTISRDNANNTVYLQMNSLKPEDTAVYYCAVQVQDESWLDYWGQGTQVTVSC
- polyreactivity (PSR sort gate): low polyreactivity

Sequence: QVQLVESGGGLVQAGGSLRLSCAASGRIYPYYDMGSYRPAPGKERELVAAITWNGGSTYYADSVKGRFTISRDYAKNTVYLQMNSLKPEDTAVYYCAVEPYYYGEDYWGQGTQVTVSS
- polyreactivity (PSR sort gate): low polyreactivity

Sequence: QFQLVESVGGLFQAGGSLRLSCDASGIIFIGNAMGWYRQAPGKERELVAAISRRGGRTYYADSVKGRFTISRDNAKNTVYLQMNSLKPEDTAVYYCAKRYYSYGKSGYYYWGQGTQVTVSS
- polyreactivity (PSR sort gate): high polyreactivity

Sequence: QVQLVESGGGLVQAGGSLRLSCAASGRIFKFNAMGWYRQAPGKEMELVAATWSGGRTYYSDSVKGRFTISRDNAKYTVYLQMNCLKPEDTAVYYCNAADSSWYVLYGSYYRSGLDYWGQGTQVTVSS
- polyreactivity (PSR sort gate): low polyreactivity

Sequence: QVQLVESGGGLVQAGGRLRLSCAASGSIFVPNAMGGYRQAPGKERELVAAISGIGGSTSYADSEKGRFTISRDNAKNTVDLHMNSLQQEDTAVYYCARADKLHTRGWGRWGSGSYSWGQGTQVTVSS
- polyreactivity (PSR sort gate): low polyreactivity

Sequence: HVQLQESGGGLVQAGGSLRLSCAASGNISYSRNMGWYRQAQGKERELVAAIDRGAITYYADSVKGRFTISRDNAKNTVDLQIYSLNPEDTAVYYCAAEYHDRWDHRYWGQGTQVTVSS
- polyreactivity (PSR sort gate): high polyreactivity

Sequence: QVQLVESGGGLVQAGGSLRLSCAASGSTLYDYAMGWYRQAPGKERELVAAINGSGGSTYYADSVKGRFTISRDNAKNTVYLQMNSLKPEDTAVYYCAAATTHRRRYGYWGQGTQVTVSS
- polyreactivity (PSR sort gate): low polyreactivity

Sequence: QVQLVESGGGLVQAGGSLRLSCAASGRTFGKYAMGWYRQAPGKERELVAAITTRVVITYYADSVKGRFTISRDTAKNTVYLQMNSLKPEDTAVYYCAADPEKIYRPFNHYYYWGQGTQVTVSS
- polyreactivity (PSR sort gate): low polyreactivity

Sequence: QVQLVESGGGLVQAGGSLRLSCAASGRIFGYYTMGWYRQAPGKERELVAAINGRGTSTYYADSVKGRFTISRDNAKNTVYLQMNSLKPEDTAVYYCAADGYTRADDYWGQGTQVTVSS
- polyreactivity (PSR sort gate): high polyreactivity

Sequence: QVQHVESGGGLVQAGGSLRLSCAASGIIFDGNVMGWDRQAPGKEREFVASISISGGSTSYADSVKGRFTISRDNAKNTVYLQMNSLKPEDTAVYYCNTDVGYGRVCRWRYHGDYWGQGTQVTVSS
- polyreactivity (PSR sort gate): low polyreactivity

Sequence: QVQLVESGGGLLQAGGSLRLSCAASGSTFYPYAMRWYRQAPGKERELVAAISSGGSTSYADSVKGRFTISRDNAKNTVYLQMNCLKPEDTAVYYCNGSSPGAVPVYDYDYWGQGTQVTVSS
- polyreactivity (PSR sort gate): low polyreactivity

Sequence: QVQLVESGGGLVQAGGSLRLSCAASGITFNRYAMGGYRQAPGKERELVASITSGGRTNYADSVKGRFTISRDNAKNTVYLQMNSLKPEDTAVYYCAVRWVRSRSSSLRKANYYWGQGTIVTVSS
- polyreactivity (PSR sort gate): high polyreactivity

Sequence: QVQLVESGGGLVQAGGSLRLSCAASGSTFKYYAMGWSRQAPGKERELVAAISYRGGRTYYADSVKGRFTISRDNAKNTVYLQMNSLKPEDTAVYYCPAVKPYYIQYQGSAGYDYWGQGTQVTVSS
- polyreactivity (PSR sort gate): high polyreactivity

Sequence: QVQLVESAGGLVQAGGSLRLSCAASGFTFIGYVMGWYRQAPGKERELVAAITSGGDTNYADSVKGRFTISRDNAKNTVYLQMNSLKPEDTAVYYCNKGAYWVEYAYIEGELDYWGQGTQVTVSS
- polyreactivity (PSR sort gate): low polyreactivity

Sequence: QVQLVESGGGLVQAGGSLRLSCAASGSIFKLNAMGWYRQAPGKERELVAVINKSGGRTYYADSVKGRFTISRDNAKNTVYFQMNSLKPEDTAVYYCNAVSKLAVNLDYWGQGTQVTVSS
- polyreactivity (PSR sort gate): high polyreactivity

Sequence: QVQLVESGGGLVQAGGSLRLSCAASGITFKSYDMGWYRQAPGKERELVAAITSGVSTHYADSVKGRFTISRDNAKNTVYLQMNSLKPEDTAVYYCAADYTWYYPYWIMDYWGQGTQVTVSS
- polyreactivity (PSR sort gate): low polyreactivity
